From article PMC7253548

Biological target: OsHsfB4d (Oryza sativa (rice; cv. Zhonghua 11?)) (UniProt Q10KX8)
Assay: EMSA
Conditions: room temperature 20 min, buffer

Chain of OsHsfB4d (Oryza sativa (rice; cv. Zhonghua 11?)) (Q10KX8 whole entry): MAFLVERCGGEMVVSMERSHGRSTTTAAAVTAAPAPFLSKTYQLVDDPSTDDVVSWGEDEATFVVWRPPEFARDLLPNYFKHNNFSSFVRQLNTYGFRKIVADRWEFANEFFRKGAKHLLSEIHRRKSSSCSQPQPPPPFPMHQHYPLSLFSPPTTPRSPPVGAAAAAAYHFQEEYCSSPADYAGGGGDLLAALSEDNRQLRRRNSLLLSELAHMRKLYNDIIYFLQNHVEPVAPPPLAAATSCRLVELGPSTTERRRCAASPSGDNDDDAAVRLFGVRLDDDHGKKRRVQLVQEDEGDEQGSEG

“CGTCGGAATAGCTGCGAATTTGGAGGTGGAACGATCGGACTTCTCTGAGTTCTTACTCTGATGTTTGCTTGGTTTGCTTTGCGTTTTCTTCGTGGTTCTGCCGGTGAAGGGGAGCGCGGTTTTATAGAGGGCAGCGAGAGGGCATCGTGGAGCTTGGAATAAGCTTCTAGAAACTTCCAGTTTGCCCCCGCATGGGCTAGAACCTAGTACGAGATAGCTTGGGCTAGAAGTTTACACCACCGGTAGCGGGGTGGGCTGTAGCCCATAGCGTCCAG (double strand)” was tested, and the binding was “binds”.
